According to patent publication US20260193326A1 (published 2026):
Where a chain is given by its changes, count along the chain named.

B1: A4-055 (VHH)
VHH: VQLQESGGGLVQPGGSLRLSCAASGSIFSINTMGWYRQAPGKQRELVAAVTRGGSTNYADSVKGRFTISRDNAKNTVYLQMNSLRPEDTAVYYCHVDEVRQSSWTTSNLWGQGTQVTVSS
B2: A4-063 (VHH)
VHH: B1 VHH with S26R, I27R, S29T, Q38R, A49T, V50I, D60G, A73P, V96I
B3: A4-058 (VHH)
VHH: B1 VHH with G41A, L46I, A49T, G53D, D60E, V96L, S103T
B4: A4-062 (VHH)
VHH: B1 VHH with P13A, I27S, T32A, A49T, S55T, A73P, V96L, Q101E
B5: A4-057 (VHH)
VHH: B1 VHH with L46K
B6: A4-065 (VHH)
VHH: B1 VHH with P13S, S26R, I27N, I30L, M33V, A49T, D60G, Q101E
B7: A4-070 (VHH)
VHH: B1 VHH with T32S, Q43W, A49T, D60N, S83T, V96L, Q101D
B8: A4-073 (VHH)
VHH: B1 VHH with I27N, L46M, A49T, A59G, S61F, V99I, L109I
B9: A4-069 (VHH)
VHH: B1 VHH with S29T, T32S, Q43W, A49T, S55N, D60N, S83T, V96L, Q101D
B10: A4-059 (VHH)
VHH: B1 VHH with L10A, I27H, I30L, Q38R, A49T, V77I, S103T
B11: A4-061 (VHH)
VHH: B1 VHH with I27R, I30L, A49T, D60N, S103T
B12: A4-053 (VHH)
VHH: B1 VHH with S29I, Q38R
B13: A4-052 (VHH)
VHH: B1 VHH with S29I
B14: A4-066 (VHH)
VHH: B1 VHH with P13T, S26R, I27A, I30L, A49T, D60G, Q101E
B15: A4-060 (VHH)
VHH: B1 VHH with I27T, I30L, L46I, A49T, D60E, S103T
B16: A4-050 (VHH)
VHH: B1 VHH with I27S, S29V
B17: A4-045 (VHH)
VHH: B1 VHH with I27S, S55V
B18: A4-043 (VHH)
VHH: B1 VHH with S26R, I27A, A49T, G53D, D60G
B19: A4-040 (VHH)
VHH: B1 VHH with S26R, A49T, V99I
B20: A4-036 (VHH)
VHH: B1 VHH with V11A, P13A, S26R, I27G, S55T
B21: A4-037 (VHH)
VHH: B1 VHH with A49T, D60G, V96L, L109I
B22: A4-033 (VHH)
VHH: B1 VHH with A22V, I27S, Q38R, A49T, G53D, D60N
B23: A4-041 (VHH)
VHH: B1 VHH with S26R, I27G, A49T, D60N, V99L
B24: A4-035 (VHH)
VHH: B1 VHH with P13A, S26R, I27G, S55T
B25: A4-042 (VHH)
VHH: B1 VHH with S26R, I27A, A49T, G53D
B26: A4-049 (VHH)
VHH: B1 VHH with I27M, S55N, D60G

biological target: T1, AAV9 (adeno-associated virus 9); test: SPR, AAV amine-coupled to CM5 chip;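 note: nanobodies flowed as analyte at seven concentrations spanning 1–100 nM over immobilized AAV (500–800 RU), kinetic constants derived by fitting the binding curves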
T1 construct: also called adeno-associated virus serotype 9
Method: (§1) AAV was amine-coupled to a CM5 sensor chip at a density of 500-800 response units (RU). Nanobodies were injected at seven concentrations (1-100 nM) with a flow rate of 45 μL/min, and chip regeneration was performed using glycine-HCl (pH 1.5). Binding curves at different nanobody concentrations were used to calculate kinetic parameters (Kₐ, Kd, KD) (Table 2 and FIG. 2).

Binder	Kd [nM]	koff [s⁻¹]	kon [M⁻¹ s⁻¹]
B1	4.06	0.00032	78800
B2	81.6	0.00401	49100
B3	6.11	0.0012	196000
B4	1.83	6e-05	32800
B5	53.3	0.00049	9190
B6	8.44	0.00139	165000
B7	35.5	0.00012	3380
B8	1880	0.00292	1560
B9	9.34	0.00098	105000
B10	0.514	6e-05	117000
B11	273	0.0013	4770
B12	2.6	0.00048	185000
B13	7.38	0.00077	104000
B14	32.8	0.00101	30700
B15	69.2	0.00176	25400

biological target: T2, AAV5 (adeno-associated virus 5); test: SPR, AAV amine-coupled to CM5 chip;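 note: nanobodies flowed as analyte at seven concentrations spanning 1–100 nM over immobilized AAV (500–800 RU), kinetic constants derived by fitting the binding curves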
T2 construct: also called adeno-associated virus serotype 5
Method: as §1

Binder	Kd [nM]	koff [s⁻¹]	kon [M⁻¹ s⁻¹]
B1	1.11	0.00022	198000
B2	128	0.00834	65000
B3	24.5	0.00129	52600
B4	0.0635	1e-05	157000
B5	64.4	0.00027	4200
B6	25	0.00155	61900
B7	86.8	0.00064	7370
B8	1140	0.00862	7530
B9	3.58	0.0002	55800
B10	16.6	0.00091	54900
B11	86.8	0.00055	6330
B12	7.52	0.00121	161000
B13	388	0.00056	1440
B14	20.7	0.00191	92100
B15	2.45	0.00045	184000

biological target: T3, AAV8 (adeno-associated virus 8); test: SPR, AAV amine-coupled to CM5 chip;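 note: nanobodies flowed as analyte at seven concentrations spanning 1–100 nM over immobilized AAV (500–800 RU), kinetic constants derived by fitting the binding curves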
T3 construct: also called adeno-associated virus serotype 8
Method: as §1

Binder	Kd [nM]	koff [s⁻¹]	kon [M⁻¹ s⁻¹]
B1	2.23	0.00044	198000
B2	439	0.0065	14800
B3	33.4	0.00173	51800
B4	1.39	0.00019	137000
B5	103	0.00031	3020
B6	184	0.00095	5180
B7	20.9	0.00019	9090
B8	1140	0.00619	5420
B9	11.6	0.00142	122000
B10	29	0.00094	32500
B11	530	0.00057	–
B12	15.7	0.00146	93200
B13	47.6	0.00151	–
B14	21.6	0.002	92400
B15	6.63	0.00055	82900

biological target: T4, AAV9; test: SPR, AAV on CM5 chip;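 note: surface plasmon resonance with AAV amine-coupled to the chip as ligand, nanobodies injected as analyte over a concentration series, rate constants and affinity fitted from binding curves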
T4 construct: also called adeno-associated virus serotype 9
Method: as §1

Binder	Kd [nM]	koff [s⁻¹]	kon [M⁻¹ s⁻¹]
B16	2.52	0.00049	194000
B17	37.6	0.00027	7190
B18	0.278	4e-05	144000
B19	2.19	0.00022	101000
B20	1620	0.00944	5810
B21	4.07	0.0004	98300
B22	199	0.00045	2270
B23	8.15	0.00142	174000
B24	1.73	0.0001	57800
B25	308	0.00144	4680
B26	93.1	0.00194	20800

biological target: T5, AAV8; test: SPR, AAV on CM5 chip;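 note: surface plasmon resonance with AAV amine-coupled to the chip as ligand, nanobodies injected as analyte over a concentration series, rate constants and affinity fitted from binding curves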
T5 construct: also called adeno-associated virus serotype 8
Method: as §1

Binder	Kd [nM]	koff [s⁻¹]	kon [M⁻¹ s⁻¹]
B16	2.44	0.00043	176000
B17	1.07	1e-05	9390
B18	5.45	0.00104	191000
B19	1.71	0.00028	164000
B20	336	0.00225	6700
B21	11.6	0.0015	129000
B22	89.2	0.00034	3810
B23	1980	0.00245	1240
B24	1.31	0.00017	130000
B25	125	0.00042	3360
B26	20.8	0.00056	26900

biological target: T6, AAV5; test: SPR, AAV on CM5 chip;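 note: surface plasmon resonance with AAV amine-coupled to the chip as ligand, nanobodies injected as analyte over a concentration series, rate constants and affinity fitted from binding curves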
T6 construct: also called adeno-associated virus serotype 5
Method: as §1

Binder	Kd [nM]	koff [s⁻¹]	kon [M⁻¹ s⁻¹]
B16	7	7e-05	10000
B17	41.3	0.00037	8950
B18	7.73	0.00028	36200
B19	3.04	0.00022	72300
B20	810	0.00621	7670
B21	0.88	0.00012	136000
B22	243	0.002	8220
B23	45.9	0.00616	134000
B24	2.52	0.0005	199000
B25	152	0.00118	7760
B26	9.61	0.00158	164000
